Consider 2 molecules from PMC6232587, “Human RNA cap1 methyltransferase CMTr1 cooperates with RNA helicase DHX15 to modify RNAs with highly structured 5′ termini” (Philosophical Transactions of the Royal Society B: …, 2018).

A value given as a limit tells only on which side of the number the result lay.

To fix the notation:
B1: CMTr1 full-length, purified from insect cells (enzyme, human, UniProt Q8N1G2 1-835, looked up)
chain: MKRRTDPECTAPIKKQKKRVAELALSLSSTSDDEPPSSVSHGAKASTTSLSGSDSETEGKQHSSDSFDDAFKADSLVEGTSSRYSMYNSVSQKLMAKMGFREGEGLGKYSQGRKDIVEASSQKGRRGLGLTLRGFDQELNVDWRDEPEPSACEQVSWFPECTTEIPDTQEMSDWMVVGKRKMIIEDETEFCGEELLHSVLQCKSVFDVLDGEEMRRARTRANPYEMIRGVFFLNRAAMKMANMDFVFDRMFTNPRDSYGKPLVKDREAELLYFADVCAGPGGFSEYVLWRKKWHAKGFGMTLKGPNDFKLEDFYSASSELFEPYYGEGGIDGDGDITRPENISAFRNFVLDNTDRKGVHFLMADGGFSVEGQENLQEILSKQLLLCQFLMALSIVRTGGHFICKTFDLFTPFSVGLVYLLYCCFERVCLFKPITSRPANSERYVVCKGLKVGIDDVRDYLFAVNIKLNQLRNTDSDVNLVVPLEVIKGDHEFTDYMIRSNESHCSLQIKALAKIHAFVQDTTLSEPRQAEIRKECLRLWGIPDQARVAPSSSDPKSKFFELIQGTEIDIFSYKPTLLTSKTLEKIRPVFDYRCMVSGSEQKFLIGLGKSQIYTWDGRQSDRWIKLDLKTELPRDTLLSVEIVHELKGEGKAQRKISAIHILDVLVLNGTDVREQHFNQRIQLAEKFVKAVSKPSRPDMNPIRVKEVYRLEEMEKIFVRLEMKIIKGSSGTPKLSYTGRDDRHFVPMGLYIVRTVNEPWTMGFSKSFKKKFFYNKKTKDSTFDLPADSIAPFHICYYGRLFWEWGDGIRVHDSQKPQDQDKLSKEDVLSFIQMHRA
B2: Recombinant DHX15 with His-tag (enzyme, human, UniProt O43143 1-795, looked up)
chain: MSKRHRLDLGEDYPSGKKRAGTDGKDRDRDRDREDRSKDRDRERDRGDREREREKEKEKELRASTNAMLISAGLPPLKASHSAHSTHSAHSTHSTHSAHSTHAGHAGHTSLPQCINPFTNLPHTPRYYDILKKRLQLPVWEYKDRFTDILVRHQSFVLVGETGSGKTTQIPQWCVEYMRSLPGPKRGVACTQPRRVAAMSVAQRVADEMDVMLGQEVGYSIRFEDCSSAKTILKYMTDGMLLREAMNDPLLERYGVIILDEAHERTLATDILMGVLKEVVRQRSDLKVIVMSATLDAGKFQIYFDNCPLLTIPGRTHPVEIFYTPEPERDYLEAAIRTVIQIHMCEEEEGDLLLFLTGQEEIDEACKRIKREVDDLGPEVGDIKIIPLYSTLPPQQQQRIFEPPPPKKQNGAIGRKVVVSTNIAETSLTIDGVVFVIDPGFAKQKVYNPRIRVESLLVTAISKASAQQRAGRAGRTRPGKCFRLYTEKAYKTEMQDNTYPEILRSNLGSVVLQLKKLGIDDLVHFDFMDPPAPETLMRALELLNYLAALNDDGDLTELGSMMAEFPLDPQLAKMVIASCDYNCSNEVLSITAMLSVPQCFVRPTEAKKAADEAKMRFAHIDGDHLTLLNVYHAFKQNHESVQWCYDNFINYRSLMSADNVRQQLSRIMDRFNLPRRSTDFTSRDYYINIRKALVTGYFMQVAHLERTGHYLTVKDNQVVQLHPSTVLDHKPEWVLYNEFVLTTKNYIRTCTDIKPEWLVKIAPQYYDMSNFPQCEAKRQLDRIIAKLQSKEYSQY
notes: ATP-dependent RNA helicase DHX15, human, from the full-length cDNA, cloned into pET28; The cloning paragraph says C-terminal His-tag; also called His-DHX15; DHX15 helicase; not shown: His-tag, C-terminal, kept

The target of assay [1] is B2. Put plainly: cell-based or functional assay.
The target in assay [2] is B1. Put plainly: pull-down; purified His-DHX15 and CMTr1 mixed in BDHX buffer (20 mM Tris-HCl pH 8, 70 mM KCl, 3 mM MgCl2, 5 mM DTT, 100 µM ATP), on ice for 10 min; complexes captured on nickel-charged agarose beads. Particulars: both partners purified.

As to B1, the “CMTr1 methyltransferase activity towards RNA92 and RNA68 substrates with equimolar DHX15, in comparison with CMTr1 alone” value in assay [1] is more than 3 fold.
Take B2: the binding result in assay [2] was “binds”.
